The target of data set [1] is human barrier-to-autointegration factor (BAF) with all cysteines mutated into alanine (human) (UniProt O75531). Put plainly: crystal structure; ternary complex EmN T43I/BAF/lamin A/C Ig-fold at 5 mg/mL, a week at 4 °C (proteolysis to the LEM-domain); hanging drop at 4 °C, 18% PEG 3350, 100 mM Tris Bis pH 5.5, 0.1 M NH4SO4; molecular replacement; 2.3 Å.
Data set [2] deals with the molecule itself. Put plainly: thioflavin T fluorescence (self-assembly kinetics); protein at 300 uM heated at 37 °C in 20 mM Tris HCl pH 8, 30 mM NaCl, 5 mM DTT; aliquots at 20 uM protein with 2.5 uM ThT read at 20 °C over 24 h.

Take “human barrier-to-autointegration factor (BAF) with all cysteines mutated into alanine (from UniProt O75531 1-89) (natural protein)”: in data set [1], the stoichiometry N (usually a count of units in the complex or per binding partner) was found to be 2.

B1: human emerin fragment EmN (region 1-187), wild-type (domain or fragment, UniProt P50402 1-187, looked up)
chain: MDNYADLSDTELTTLLRRYNIPHGPVVGSTRRLYEKKIFEYETQRRRLSPPSSSAASSYSFSDLNSTRGDADMYDLPKKEDALLYQSKGYNDDYYEESYFTTRTYGEPESAGPSRAVRQSVTSFPDADAFHHQVHDDDLLSSSEEECKDRERPMYGRDSAYQSITHYRPVSASRSSLDLSYYPTSSS
notes: emerin, human, fragment EmN, residues 1-187 of the 254-residue protein (LEM-domain aa 1-45 and part of the disordered region); pETM-13 vector; also called wild-type EmN; EmN wild-type; not shown: His8, N-terminal, cleaved
Consider B1, for which the binding result in data set [2] was “binds”.

B2: human emerin fragment EmN (region 1-187), mutant T43I (domain or fragment, UniProt P50402 1-187, looked up)
chain: MDNYADLSDTELTTLLRRYNIPHGPVVGSTRRLYEKKIFEYEIQRRRLSPPSSSAASSYSFSDLNSTRGDADMYDLPKKEDALLYQSKGYNDDYYEESYFTTRTYGEPESAGPSRAVRQSVTSFPDADAFHHQVHDDDLLSSSEEECKDRERPMYGRDSAYQSITHYRPVSASRSSLDLSYYPTSSS
notes: emerin, human, fragment EmN, residues 1-187, with the patient mutation T43I (atrial cardiac defects); Made by site-directed mutagenesis from the EmN expression vector; also called EmN T43I; not shown: His8, N-terminal, cleaved
For the molecule B2, the binding result in data set [2] was “binds”.

B3: human emerin fragment EmN (region 1-187), mutant P22L (domain or fragment, UniProt P50402 1-187, looked up)
chain: MDNYADLSDTELTTLLRRYNILHGPVVGSTRRLYEKKIFEYETQRRRLSPPSSSAASSYSFSDLNSTRGDADMYDLPKKEDALLYQSKGYNDDYYEESYFTTRTYGEPESAGPSRAVRQSVTSFPDADAFHHQVHDDDLLSSSEEECKDRERPMYGRDSAYQSITHYRPVSASRSSLDLSYYPTSSS
notes: emerin, human, fragment EmN, residues 1-187, with the patient mutation P22L (atrial cardiac defects); Made by site-directed mutagenesis from the EmN expression vector; also called EmN P22L; not shown: His8, N-terminal, cleaved
B3: in data set [2], the binding result was “binds”.

B4: human emerin fragment EmN (region 1-187), mutant ΔK37 (domain or fragment, UniProt P50402 1-187, looked up)
chain: MDNYADLSDTELTTLLRRYNIPHGPVVGSTRRLYEKIFEYETQRRRLSPPSSSAASSYSFSDLNSTRGDADMYDLPKKEDALLYQSKGYNDDYYEESYFTTRTYGEPESAGPSRAVRQSVTSFPDADAFHHQVHDDDLLSSSEEECKDRERPMYGRDSAYQSITHYRPVSASRSSLDLSYYPTSSS
notes: emerin, human, fragment EmN, residues 1-187, with the patient deletion ΔK37 (atrial cardiac defects); Made by site-directed mutagenesis from the EmN expression vector; also called EmN ΔK37; emerin ΔK37; not shown: His8, N-terminal, cleaved
On to B4, for which the binding result in data set [2] is “binds”.

Source of the values: PMC6628311, “An Emerin LEM-Domain Mutation Impairs Cell Response to Mechanical Stress” (Cells, 2019).
